According to patent US20250041437A1 (SUN PHARMA ADVANCED RESEARCH, published 2025):

Columns and labels:
[1] = target: T1, recombinant human MUC1-SEA (MUC1 antigen, Acrobiosystems, Cat: MU1-H52H9) (human, UniProt P15941 1039-1158); assay: SPR; MUC1 antigen captured on anti-His CM5 chip, antibody as analyte
T1 construct: Bought protein, captured on an anti-His chip (so His-tagged)
T1 sequence: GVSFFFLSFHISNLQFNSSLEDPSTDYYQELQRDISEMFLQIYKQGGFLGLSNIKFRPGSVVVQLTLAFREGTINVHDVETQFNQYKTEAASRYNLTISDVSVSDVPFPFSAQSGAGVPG

[2] = target: T1, recombinant human MUC1-SEA (MUC1 …); assay: SPR, single cycle kinetics; MUC1 antigen captured on anti-His CM5 chip

B1: HM2 LM2 variant of humanized anti-MUC1 antibody SP66 (antibody, V domains shown)
VH: EIQLVQSGAEVKKPGSSVKVSCKVTGHSITRGSSWHWMRQAPGQGLEWIGYIHYGGGTSYNPSLKSRITITRDTSTNTAYMELSSLRSEDTAFYFCARYSYDITYRWFFDVWGQGTLVTVSS
VL: DIQMTQSPSTLSASVGDRVTITCRASQNIGTSIHWYQQKPGKAPKLLIKRASESISGVPSRFSGSGSGTEFTLTISSLQPDDFATYYCQQNNNWPLTFGQGTKVEVK
notes: Humanized IgG expressed in CHO cells; only variable domains tied to the variant
Kd [1]: 0.144 nM | koff [1]: 0.000255 s⁻¹ | kon [1]: 1.77e+06 M⁻¹ s⁻¹

B2: humanized IgG1 anti-MUC1-SEA mAb (HM5 LM4) (antibody, V domains shown)
VH: EIQLVQSGAEVKKPGSSVKVSCKVTGHSITRGSSWHWMRQAPGQGLEWIGYIHYGGGTSYNPSLKSRITITRDTSTNTFYMELSSLRSEDTAFYFCARYSYDITYRWFFDVWGQGTLVTVSS
VL: DIQMTQSPSTLSASVGDRVTITCRASQNIGTSIHWYQQKPGKAPKLLIKYASESISGVPSRFSGSGSGTEFTLTISSLQPDDFATYYCQQNNNWPLTFGQGTKVEIKR
notes: also called Humanized anti-MUC1 SEA IgG1; humanized IgG anti-MUC1-SEA mAb
Kd [2]: 0.0397 nM | koff [2]: 0.000281 s⁻¹ | kon [2]: 7.07e+06 M⁻¹ s⁻¹ | Kd [1]: 0.0298 nM | koff [1]: 0.00015 s⁻¹ | kon [1]: 5.02e+06 M⁻¹ s⁻¹

B3: HM4 LM2 variant of humanized anti-MUC1 antibody SP66 (antibody, V domains shown)
VH: EIQLVQSGAEVKKPGSSVKVSCKVTGHSITRGSSWHWMRQAPGQGLEWIGYIHYGGGTSYNPSLKSRATLTRDTSTNTFYMELSSLRSEDTAFYFCARYSYDITYRWFFDVWGQGTLVTVSS
VL: DIQMTQSPSTLSASVGDRVTITCRASQNIGTSIHWYQQKPGKAPKLLIKRASESISGVPSRFSGSGSGTEFTLTISSLQPDDFATYYCQQNNNWPLTFGQGTKVEVK
notes: as for B1
Kd [1]: 0.0639 nM | koff [1]: 0.000261 s⁻¹ | kon [1]: 4.08e+06 M⁻¹ s⁻¹

B4: HM4 LM3 variant of humanized anti-MUC1 antibody SP66 (antibody, V domains shown)
VH: EIQLVQSGAEVKKPGSSVKVSCKVTGHSITRGSSWHWMRQAPGQGLEWIGYIHYGGGTSYNPSLKSRATLTRDTSTNTFYMELSSLRSEDTAFYFCARYSYDITYRWFFDVWGQGTLVTVSS
VL: DIQMTQSPSTLSASVGDRVTITCRASQNIGTSIHWYQQKPGKAPKLLIKYASESISGVPSRFSGSGSGTEFTLTISSLQPDDFATYYCQQNNNWPLTFGQGTKVEVK
notes: as for B1
Kd [1]: 0.0826 nM | koff [1]: 0.000238 s⁻¹ | kon [1]: 2.88e+06 M⁻¹ s⁻¹

B5: HM5 LM2 variant of humanized anti-MUC1 antibody SP66 (antibody, V domains shown)
VH: EIQLVQSGAEVKKPGSSVKVSCKVTGHSITRGSSWHWMRQAPGQGLEWIGYIHYGGGTSYNPSLKSRITITRDTSTNTFYMELSSLRSEDTAFYFCARYSYDITYRWFFDVWGQGTLVTVSS
VL: DIQMTQSPSTLSASVGDRVTITCRASQNIGTSIHWYQQKPGKAPKLLIKRASESISGVPSRFSGSGSGTEFTLTISSLQPDDFATYYCQQNNNWPLTFGQGTKVEVK
notes: as for B1
Kd [1]: 0.0444 nM | koff [1]: 0.000213 s⁻¹ | kon [1]: 4.8e+06 M⁻¹ s⁻¹

B6: HM3 LM3 variant of humanized anti-MUC1 antibody SP66 (antibody, V domains shown)
VH: EIQLVQSGAEVKKPGSSVKVSCKVTGHSITRGSSWHWMRQAPGQGLEWIGYIHYGGGTSYNPSLKSRATLTRDTSTNTAYMELSSLRSEDTAFYFCARYSYDITYRWFFDVWGQGTLVTVSS
VL: DIQMTQSPSTLSASVGDRVTITCRASQNIGTSIHWYQQKPGKAPKLLIKYASESISGVPSRFSGSGSGTEFTLTISSLQPDDFATYYCQQNNNWPLTFGQGTKVEVK
notes: as for B1
Kd [1]: 0.0775 nM | koff [1]: 0.00347 s⁻¹ | kon [1]: 4.47e+07 M⁻¹ s⁻¹

B7: HM2 LM3 variant of humanized anti-MUC1 antibody SP66 (antibody, V domains shown)
VH: EIQLVQSGAEVKKPGSSVKVSCKVTGHSITRGSSWHWMRQAPGQGLEWIGYIHYGGGTSYNPSLKSRITITRDTSTNTAYMELSSLRSEDTAFYFCARYSYDITYRWFFDVWGQGTLVTVSS
VL: DIQMTQSPSTLSASVGDRVTITCRASQNIGTSIHWYQQKPGKAPKLLIKYASESISGVPSRFSGSGSGTEFTLTISSLQPDDFATYYCQQNNNWPLTFGQGTKVEVK
notes: as for B1
Kd [1]: 0.0598 nM | koff [1]: 0.000188 s⁻¹ | kon [1]: 3.14e+06 M⁻¹ s⁻¹

B8: HM3 LM2 variant of humanized anti-MUC1 antibody SP66 (antibody, V domains shown)
VH: EIQLVQSGAEVKKPGSSVKVSCKVTGHSITRGSSWHWMRQAPGQGLEWIGYIHYGGGTSYNPSLKSRATLTRDTSTNTAYMELSSLRSEDTAFYFCARYSYDITYRWFFDVWGQGTLVTVSS
VL: DIQMTQSPSTLSASVGDRVTITCRASQNIGTSIHWYQQKPGKAPKLLIKRASESISGVPSRFSGSGSGTEFTLTISSLQPDDFATYYCQQNNNWPLTFGQGTKVEVK
notes: as for B1
Kd [1]: 0.186 nM | koff [1]: 0.000492 s⁻¹ | kon [1]: 2.65e+06 M⁻¹ s⁻¹

B9: HM5 LM3 variant of humanized anti-MUC1 antibody SP66 (antibody, V domains shown)
VH: EIQLVQSGAEVKKPGSSVKVSCKVTGHSITRGSSWHWMRQAPGQGLEWIGYIHYGGGTSYNPSLKSRITITRDTSTNTFYMELSSLRSEDTAFYFCARYSYDITYRWFFDVWGQGTLVTVSS
VL: DIQMTQSPSTLSASVGDRVTITCRASQNIGTSIHWYQQKPGKAPKLLIKYASESISGVPSRFSGSGSGTEFTLTISSLQPDDFATYYCQQNNNWPLTFGQGTKVEVK
notes: as for B1
Kd [1]: 0.05 nM | koff [1]: 0.000198 s⁻¹ | kon [1]: 3.97e+06 M⁻¹ s⁻¹
